First the molecules themselves.
B1: HDV Ribozyme (parent)
chain: GGCCGGCAUGGUCCCAGCCUCCUCGCUGGCGCCGGCUGGGCAACAUUCCGAGGGGACCGUCCCCUCGGUAAUGGCGAAUGGGACCCA

Variants of B1 are the subject of this data set. As to the kind of experiment: self-cleavage, relative activity (ratio to wild type); higher = more cleavage; co-transcriptional.
Consider GGCGGGCAUGGUCCCAGCCUCCUCGCUGGCGCCGGCUGGGCAACAUUCCGAGGGGACCGUCCCCUCGGUAAUGGCGAAUGGAACCCA [C4G G82A], for which the self-cleavage turned out to be 0.0674.

Regarding GGCCGGCAUGGUCCCAGCCUCCUCGUUGGCGCCGGCUGGGCAACAUUCCGAGGGGACCGUCCCCUCGGUAAUGGCGACUGGGACCCA [C26U A78C], the self-cleavage came out at 0.35.

For the variant GGCCGGCAUGGUCCCAGCCUCCUCGCUGGCGCCGGCUGGGCAACAUUCCGAGGGUACCGUCCCCUCGGUAAUGGCGAAUUGGACCCA [G55U G80U], the self-cleavage came out at 0.21.

In the case of GGCCGGCAUGGUCCCAGCCUCCUCGCUGGCGCCGGCUGGGCAACGUUCCGAGGGGACCGUCCCCUCGGUAAUGGCGAUUGGGACCCA [A45G A78U], the self-cleavage was 0.225.

Consider GACCGGCAUGGUCCCAGCCUCCUCGCUGGCGCCGGCUGGGCAACAUUCCGAGGGGACCGUCCCAUCGGUAAUGGCGAAUGGGACCCA [G2A C64A], for which the self-cleavage was 0.248.

GGCCGGCAUGGUCCCAGCCUCCUCGCUGGCGCCGGCUGGGCAACUUUCCGAGGGGACCGUCCCCUCGGUAAUGGCGAAUGCGACCCA [A45U G81C]: the self-cleavage was 0.287.

Regarding GGCCGGCAUGGCCCCAGCCUCCUCGCUGGCGCCGGCUGGGCCACAUUCCGAGGGGACCGUCCCCUCGGUAAUGGCGAAUGGGACCCA [U12C A42C], the self-cleavage is 0.0489.

On to GGCCGGCAUGGUCCCAGCGUCCUCGCUGGCGCCGGCUGGGCAACAUUCCGAGGGGACCGUCCCCUCGGUAAUGGCCAAUGGGACCCA [C19G G76C], for which the self-cleavage amounted to 0.

GGCCGGCCUGGUCCCAGCCUCCUCGCUGGCGCCGGCUGGGCAACAUUCCAAGGGGACCGUCCCCUCGGUAAUGGCGAAUGGGACCCA [A8C G50A]: the self-cleavage was found to be 0.96.

Take GGCCGGCAUGGUCCCAGCCUCCUCGCUGGCGCCGGCUGGGCAACAUUUCGAGGGGACCGUCCCCUCGGUAAUGGCGAAUGUGACCCA [C48U G81U]: the self-cleavage worked out at 0.327.

Regarding GGCCGGCAUGGUCCCAGCCUCCUCGCUGGCGCGGGCUGGGCAAAAUUCCGAGGGGACCGUCCCCUCGGUAAUGGCGAAUGGGACCCA [C33G C44A], the self-cleavage is 0.0978.

On to GGCCGGCAUGGUCCCAGCCUCCUCGCUGGCGCCGGCUGGGCAACAUUCCGAGGGGACCGUGCCCUCGGUAAUGGCGAAUGAGACCCA [C61G G81A], for which the self-cleavage came to 0.219.

In the case of GGCCGGCAUGGUCCCAGCCUCCUCGCUGGCGCCGGCUGGGCAACAUUCCGAGGGGACCGGCCCCUCGGUAGUGGCGAAUGGGACCCA [U60G A71G], the self-cleavage turned out to be 0.831.

As for AGCCGGCAUGGUCCCAGCCUCCUCGCUGGCGCCGGCUGGGCAACAUUCCGAGGGGACCGUCCCCUCUGUAAUGGCGAAUGGGACCCA [G1A G67U], the self-cleavage was 0.297.

Take GGCCGGCAUGGUCCCAGCCUCGUCGCUGGCGCCGGCUGGGCAACAUUCCGAGGGGACCGUCCCCUCAGUAAUGGCGAAUGGGACCCA [C22G G67A]: the self-cleavage stood at 0.0898.

GGCCGGCAUGGUCCCAGCCUCCCCGCUGGCGCCGGCUGGGCAACAUUCCGAGGGGACCGUCCCCUCGGUAAUGGCGAAUGGGACCCG [U23C A87G]: the self-cleavage was 0.855.

For the variant GGCCGGCAUGGUCCCAGCCUCCGCGCUGGCGCCGGCUGAGCAACAUUCCGAGGGGACCGUCCCCUCGGUAAUGGCGAAUGGGACCCA [U23G G39A], the self-cleavage came out at 0.17.

With GGCCGGCAUGGUCCCAGCCUCCUCGCUGGCGCCGGCUGGGCAACAUUCCGAGGGGACCGUCCCCUCCGUGAUGGCGAAUGGGACCCA [G67C A70G], the self-cleavage worked out at 0.712.

As for GGCCGGCAUCGUCCCAGCCUCCUCGCUGGCGCCGGCUGGGCGACAUUCCGAGGGGACCGUCCCCUCGGUAAUGGCGAAUGGGACCCA [G10C A42G], the self-cleavage was 0.151.

As to GGCCUGCAUGGUCCCAGCCUCCUCGCUGGCGCCGGCUGGGCAACAUUCCGAGGGGACCGUCCCCUCGGUACUGGCGAAUGGGACCCA [G5U A71C], the self-cleavage was 0.

Consider GGCCGGCAUGGUCCCAGCCGCCUCGCUGGCGCCGGCUGGGCAACAUUCCGAGGAGACCGUCCCCUCGGUAAUGGCGAAUGGGACCCA [U20G G54A], for which the self-cleavage stood at 0.201.

For GGCCGGCAUGGUCCCAACCUCCUCGCUGGCGCCGGCUGGGCAACAUGCCGAGGGGACCGUCCCCUCGGUAAUGGCGAAUGGGACCCA [G17A U47G], the self-cleavage was found to be 0.657.

In the case of GGCCGGCCUGGUCCCAGCCUCCUCGCUGGCGCCGGCUGGGCAAUAUUCCGAGGGGACCGUCCCCUCGGUAAUGGCGAAUGGGACCCA [A8C C44U], the self-cleavage is 0.199.

In the case of GGCAGGCAUGGUCCCAGCCUCGUCGCUGGCGCCGGCUGGGCAACAUUCCGAGGGGACCGUCCCCUCGGUAAUGGCGAAUGGGACCCA [C4A C22G], the self-cleavage turned out to be 0.102.

Regarding GGCCGGCAUGGUCCCAGCCUCCUCGGUGGCCCCGGCUGGGCAACAUUCCGAGGGGACCGUCCCCUCGGUAAUGGCGAAUGGGACCCA [C26G G31C], the self-cleavage was determined as 0.284.

As for GGACGGCAUGGUCCCAGCCUCCUCGCUCGCGCCGGCUGGGCAACAUUCCGAGGGGACCGUCCCCUCGGUAAUGGCGAAUGGGACCCA [C3A G28C], the self-cleavage stood at 0.0275.

As for GGCCGGCAUGGUCCCAGCCUCCUCGCUGGCGCCGGCUGGGCUACAUUCCGAGGGGACCGUCUCCUCGGUAAUGGCGAAUGGGACCCA [A42U C62U], the self-cleavage is 0.742.

For GGCCGGCAUGGUCCCAGCCUCCUGGCAGGCGCCGGCUGGGCAACAUUCCGAGGGGACCGUCCCCUCGGUAAUGGCGAAUGGGACCCA [C24G U27A], the self-cleavage was found to be 0.0437.

As for GGCCGGCAUGGUCCCAGCCUCCUCGCUGGCGCCGGCUGGGCAACAUUCCGAGGAGACCGUACCCUCGGUAAUGGCGAAUGGGACCCA [G54A C61A], the self-cleavage stood at 1.07.

Regarding GGCCGGCAUGGUCACAGCCUCAUCGCUGGCGCCGGCUGGGCAACAUUCCGAGGGGACCGUCCCCUCGGUAAUGGCGAAUGGGACCCA [C14A C22A], the self-cleavage was 0.0692.

Take GGCCGGCAUGGUCCCAGCCUCCUCGCUGGCGCCGGCUGGGCAACAUUCGGAGGGGACCGUCCCCUCGGUAACGGCGAAUGGGACCCA [C49G U72C]: the self-cleavage was found to be 0.332.

For GGCCGGCAUGGUCCCAGCCUCCUCGCUGGCGCCGGCUGGGCAAGAUUCCGAGGGGACCGUCCCCUCGGCAAUGGCGAAUGGGACCCA [C44G U69C], the self-cleavage is 0.776.

(Values after the RNAGym collection of RNA variant scans (doi:10.7554/elife.80360).)
